Key:
recombinant human PD-L1 = recombinant human PD-L1 (Homo sapiens, UniProt Q9NZQ7 19-238); assay: BLI; PD-L1 immobilized on AR probe; BLI: 1x PBS pH 7.4, aptamers 3-12 uM, 300 s association, 600 s dissociation, temperature not stated; EMSA: TBE-PAGE, binding buffer composition not given; settings: protein: commercial; stem-loop
[1] = molecular target: PD-L1 on MDA-MB-231-derived exosomes (UniProt Q9NZQ7 19-290); assay: ellipsometry (DP-SIS); exosomes 1e1-1e8 particles/mL; no detectable signal; BLI: 1x PBS pH 7.4, aptamers 3-12 uM, 300 s association, 600 s dissociation, temperature not stated; EMSA: TBE-PAGE, binding buffer composition not given; settings: protein: native; stem-loop
PD-L1 on MDA-MB-231-derived exosomes, sequence (Q9NZQ7 19-290): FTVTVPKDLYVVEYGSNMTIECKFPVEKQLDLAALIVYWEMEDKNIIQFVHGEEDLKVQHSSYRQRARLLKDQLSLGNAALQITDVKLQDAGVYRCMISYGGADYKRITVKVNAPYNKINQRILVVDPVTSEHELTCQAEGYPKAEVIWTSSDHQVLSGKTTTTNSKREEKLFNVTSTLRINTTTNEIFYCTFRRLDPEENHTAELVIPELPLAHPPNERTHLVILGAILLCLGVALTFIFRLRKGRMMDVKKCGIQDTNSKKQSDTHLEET

recombinant human PD-L1, sequence (Q9NZQ7 19-238): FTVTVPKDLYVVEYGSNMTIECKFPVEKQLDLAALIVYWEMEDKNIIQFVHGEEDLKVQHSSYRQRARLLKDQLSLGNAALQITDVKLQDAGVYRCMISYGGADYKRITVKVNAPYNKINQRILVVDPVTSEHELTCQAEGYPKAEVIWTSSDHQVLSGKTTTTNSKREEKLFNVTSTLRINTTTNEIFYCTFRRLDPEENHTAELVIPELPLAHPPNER

TGACACCGTACCTGCTCTCCGCGCGAAGCACGCCAGGGACTAT (structured_DNA, 5' amine (NH2)) [Apt13]
Kd (recombinant human PD-L1): ~714 nM

ATAGTCCCTGGCGTGCTTGGTCGGCAGAGCAGGTACGGTGTCA (structured_DNA, 5' amine (NH2)) [Apt45]
Kd (recombinant human PD-L1): ~186 nM | binding result [1]: no binding

GTACCTGCTCTCCGCGCGAAGCACGCCAGGGACT (structured_DNA, 5' amine (NH2)) [Tr-Apt13]
Kd (recombinant human PD-L1): ~991 nM
